Test results as given in publication PMC7948962, “Wzb of Vibrio vulnificus represents a new group of low-molecular-weight protein tyrosine phosphatases with a unique insertion in the W-loop” (The Journal of Biological Chemistry, 2021).

Test system: O=[N+]([O-])c1ccc(OP(=O)(O)O)cc1
Assay: p-nitrophenol release, A405, initial velocity, Michaelis-Menten fit
Type: biochemical, Escherichia coli
Conditions: 10 mM HEPES pH 7.5, 150 mM NaCl, 20 °C, 200 nM enzyme
From the text: p-nitrophenol release, A405, initial velocity, Michaelis-Menten fit on EcWzb

EcWzb (Escherichia coli K-12; INS39AAAA)
Km (A39_L40insAAAA): 2050 ± 100 µM
kcat (A39_L40insAAAA): 6.09 ± 0.09 s⁻¹
kcat/Km (A39_L40insAAAA): 2970 M⁻¹ s⁻¹

EcWzb (Escherichia coli K-12; INS39EKSR)
Km (A39_L40insEKSR): 2530 ± 30 µM
kcat (A39_L40insEKSR): 9.34 ± 0.1 s⁻¹
kcat/Km (A39_L40insEKSR): 3690 M⁻¹ s⁻¹

EcWzb (Escherichia coli K-12)
Km: 3480 ± 240 µM
kcat: 2.84 ± 0.1 s⁻¹
kcat/Km: 820 M⁻¹ s⁻¹
